Bridges are numbered along the chain shown (N, C = ends). [ ]: non-standard residue; d: D form. Nle = CCCC[C@H](N)C(=O)O
Experiments:
Experiment in all cases: cell-based or functional assay
Chymase, from human skin = biological target: T1, Chymase, from human skin (human, UniProt P23946 22-247)
T1 sequence (looked up): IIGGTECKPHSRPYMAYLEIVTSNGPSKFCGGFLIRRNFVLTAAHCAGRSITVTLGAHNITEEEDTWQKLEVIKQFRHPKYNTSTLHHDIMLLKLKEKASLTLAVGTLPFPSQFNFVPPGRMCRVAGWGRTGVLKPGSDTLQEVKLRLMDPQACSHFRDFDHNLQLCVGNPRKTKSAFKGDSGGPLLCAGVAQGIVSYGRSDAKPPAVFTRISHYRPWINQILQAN

[1] = biological target: Thrombin, from Human Plasma, high activity (human, UniProt P00734 328-622)
[2] = biological target: Chymotrypsin, from human pancreas (human, UniProt P17538 19-263)
[3] = biological target: T2, Elastase from human neutrophils (human, UniProt P08246 30-247, limits assumed)
T2 sequence (looked up): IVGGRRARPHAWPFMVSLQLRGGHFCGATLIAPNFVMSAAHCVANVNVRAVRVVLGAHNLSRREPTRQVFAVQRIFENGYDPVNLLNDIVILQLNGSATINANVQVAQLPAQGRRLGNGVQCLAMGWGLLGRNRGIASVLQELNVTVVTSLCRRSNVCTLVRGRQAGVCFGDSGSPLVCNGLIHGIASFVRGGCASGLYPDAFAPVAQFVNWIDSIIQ

[4] = biological target: Trypsin, Iodination grade, from human pancreas (human, UniProt P07477 24-247)
[5] = biological target: T3, CathepsinG, from human neutrophils (human, UniProt P08311 21-244)
T3 sequence (looked up): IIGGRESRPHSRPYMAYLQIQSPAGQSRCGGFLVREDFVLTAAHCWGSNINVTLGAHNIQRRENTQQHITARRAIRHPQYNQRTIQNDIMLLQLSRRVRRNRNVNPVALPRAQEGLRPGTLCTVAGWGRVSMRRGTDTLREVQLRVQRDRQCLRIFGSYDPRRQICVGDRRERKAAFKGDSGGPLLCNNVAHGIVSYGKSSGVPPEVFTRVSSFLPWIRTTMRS

[6] = biological target: Tryptase, from human lung (human, UniProt Q15661 31-275, limits assumed)
[7] = biological target: Urokinase from human urine (human, UniProt P00749 21-431, limits assumed)
[8] = biological target: Coagulation Factor Xa, from human plasma (human, UniProt P00742 41-488, limits assumed)
Coagulation Factor Xa, from human plasma, sequence (P00742 41-488 limits assumed): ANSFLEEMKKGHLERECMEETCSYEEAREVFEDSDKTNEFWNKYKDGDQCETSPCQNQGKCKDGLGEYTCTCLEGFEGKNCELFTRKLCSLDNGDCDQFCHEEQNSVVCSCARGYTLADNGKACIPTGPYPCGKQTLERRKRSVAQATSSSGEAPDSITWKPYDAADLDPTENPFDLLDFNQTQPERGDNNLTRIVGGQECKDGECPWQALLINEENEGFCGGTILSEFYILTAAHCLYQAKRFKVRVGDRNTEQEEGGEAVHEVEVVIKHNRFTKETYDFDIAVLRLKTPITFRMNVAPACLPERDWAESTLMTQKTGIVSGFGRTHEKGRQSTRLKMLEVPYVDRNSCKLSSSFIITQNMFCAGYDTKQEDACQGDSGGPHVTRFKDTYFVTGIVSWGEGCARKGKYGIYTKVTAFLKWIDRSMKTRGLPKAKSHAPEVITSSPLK

Tryptase, from human lung, sequence (Q15661 31-275 limits assumed): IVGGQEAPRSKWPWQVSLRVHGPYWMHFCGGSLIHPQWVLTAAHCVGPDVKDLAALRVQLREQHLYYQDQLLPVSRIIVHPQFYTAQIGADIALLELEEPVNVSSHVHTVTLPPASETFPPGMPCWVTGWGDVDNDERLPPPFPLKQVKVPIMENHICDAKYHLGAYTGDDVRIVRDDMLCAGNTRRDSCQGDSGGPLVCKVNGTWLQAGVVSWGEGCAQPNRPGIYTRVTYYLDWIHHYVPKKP
Chymotrypsin, from human pancreas, sequence (P17538 19-263): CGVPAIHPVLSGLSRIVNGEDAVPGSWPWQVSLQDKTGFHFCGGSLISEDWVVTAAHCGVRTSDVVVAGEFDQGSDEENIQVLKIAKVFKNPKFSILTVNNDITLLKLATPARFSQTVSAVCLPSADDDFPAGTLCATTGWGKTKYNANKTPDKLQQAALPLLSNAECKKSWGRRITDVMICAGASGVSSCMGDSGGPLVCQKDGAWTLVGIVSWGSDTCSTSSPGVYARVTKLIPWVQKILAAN

Binder	% inhibition at 100 µM (Chymase, from human skin) [%]	% inhibition at 100 µM [1] [%]	% inhibition at 100 µM [2] [%]	IC50 [3] [nmol]	% inhibition at 100 µM [4] [%]	IC50 [5] [nmol]	% inhibition at 100 µM [6] [%]	% inhibition at 100 µM [7] [%]	% inhibition at 100 µM [5] [%]	% inhibition at 100 µM [8] [%]
ICTKSDPPQCR (HELM PEPTIDE1{I.C.T.K.S.D.P.P.Q.C.R.[dP].P}$PEPTIDE1,PEPTIDE1,2:R3-10:R3|PEPTIDE1,PEPTIDE1,1:R1-13:R2$$$V2.0; SMILES CC[C@H](C)[C@@H]1NC(=O)[C@@H]2CCCN2C(=O)[C@H]2CCCN2C(=O)[C@H](CCCNC(=N)N)NC(=O)[C@@H]2CSSC[C@H](NC1=O)C(=O)N[C@@H]([C@@H](C)O)C(=O)N[C@@H](CCCCN)C(=O)N[C@@H](CO)C(=O)N[C@@H](CC(=O)O)C(=O)N1CCC[C@H]1C(=O)N1CCC[C@H]1C(=O)N[C@@H](CCC(N)=O)C(=O)N2) [Example 17]	27.6	0	16	> 100000	90	55	90.4	–	–	–
ICTKSDPPYCR (HELM PEPTIDE1{I.C.T.K.S.D.P.P.Y.C.R.[dP].P}$PEPTIDE1,PEPTIDE1,2:R3-10:R3|PEPTIDE1,PEPTIDE1,1:R1-13:R2$$$V2.0; SMILES CC[C@H](C)[C@@H]1NC(=O)[C@@H]2CCCN2C(=O)[C@H]2CCCN2C(=O)[C@H](CCCNC(=N)N)NC(=O)[C@@H]2CSSC[C@H](NC1=O)C(=O)N[C@@H]([C@@H](C)O)C(=O)N[C@@H](CCCCN)C(=O)N[C@@H](CO)C(=O)N[C@@H](CC(=O)O)C(=O)N1CCC[C@H]1C(=O)N1CCC[C@H]1C(=O)N[C@@H](Cc1ccc(O)cc1)C(=O)N2) [Example 18]	32.5	0	25	> 100000	84	47	88.3	–	–	–
ICTXSDPPICR (HELM PEPTIDE1{I.C.T.[Nle].S.D.P.P.I.C.R.[dP].P}$PEPTIDE1,PEPTIDE1,2:R3-10:R3|PEPTIDE1,PEPTIDE1,1:R1-13:R2$$$V2.0; SMILES CCCC[C@@H]1NC(=O)[C@H]([C@@H](C)O)NC(=O)[C@@H]2CSSC[C@H](NC(=O)[C@H]([C@@H](C)CC)NC(=O)[C@@H]3CCCN3C(=O)[C@@H]3CCCN3C(=O)[C@H](CC(=O)O)NC(=O)[C@H](CO)NC1=O)C(=O)N[C@@H](CCCNC(=N)N)C(=O)N1CCC[C@@H]1C(=O)N1CCC[C@H]1C(=O)N[C@@H]([C@@H](C)CC)C(=O)N2) [Example 22]	98.8	–	0	> 100000	84	55	3.8	5.7	–	–
XCTKSDPPICN (HELM PEPTIDE1{[O=C([C@@H](N[*:1])C1CCCCC1)[*:2]].C.T.K.S.D.P.P.I.C.N.[dP].P}$PEPTIDE1,PEPTIDE1,2:R3-10:R3|PEPTIDE1,PEPTIDE1,1:R1-13:R2$$$V2.0; SMILES CC[C@H](C)[C@@H]1NC(=O)[C@@H]2CCCN2C(=O)[C@@H]2CCCN2C(=O)[C@H](CC(=O)O)NC(=O)[C@H](CO)NC(=O)[C@H](CCCCN)NC(=O)[C@H]([C@@H](C)O)NC(=O)[C@@H]2CSSC[C@H](NC1=O)C(=O)N[C@@H](CC(N)=O)C(=O)N1CCC[C@@H]1C(=O)N1CCC[C@H]1C(=O)N[C@@H](C1CCCCC1)C(=O)N2) [Example 37]	–	–	–	–	–	35	56	5	–	–
cyclo([Nle]CTKSDPPICT[dP]P) (disulfide 2-10) [Example 42]	–	–	–	–	–	46	0	7	–	–
FCTKSDPPICS (HELM PEPTIDE1{F.C.T.K.S.D.P.P.I.C.S.[dA].P}$PEPTIDE1,PEPTIDE1,2:R3-10:R3|PEPTIDE1,PEPTIDE1,1:R1-13:R2$$$V2.0; SMILES CC[C@H](C)[C@@H]1NC(=O)[C@@H]2CCCN2C(=O)[C@@H]2CCCN2C(=O)[C@H](CC(=O)O)NC(=O)[C@H](CO)NC(=O)[C@H](CCCCN)NC(=O)[C@H]([C@@H](C)O)NC(=O)[C@@H]2CSSC[C@H](NC1=O)C(=O)N[C@@H](CO)C(=O)N[C@H](C)C(=O)N1CCC[C@H]1C(=O)N[C@@H](Cc1ccccc1)C(=O)N2) [Example 49]	0	7.9	0	> 10000	96	82	30.5	6.2	–	–
ICTKSDPPYCR (HELM PEPTIDE1{I.C.T.K.S.D.P.P.Y.C.R.[dP].P}$PEPTIDE1,PEPTIDE1,2:R3-10:R3|PEPTIDE1,PEPTIDE1,1:R1-13:R2$$$V2.0; SMILES CC[C@H](C)[C@@H]1NC(=O)[C@@H]2CCCN2C(=O)[C@H]2CCCN2C(=O)[C@H](CCCNC(=N)N)NC(=O)[C@@H]2CSSC[C@H](NC1=O)C(=O)N[C@@H]([C@@H](C)O)C(=O)N[C@@H](CCCCN)C(=O)N[C@@H](CO)C(=O)N[C@@H](CC(=O)O)C(=O)N1CCC[C@H]1C(=O)N1CCC[C@H]1C(=O)N[C@@H](Cc1ccc(O)cc1)C(=O)N2) [Example 56]	32.5	0	25	> 100000	84	47	88.3	–	–	–
ICTXSDPPICR (HELM PEPTIDE1{I.C.T.[Nle].S.D.P.P.I.C.R.[dP].P}$PEPTIDE1,PEPTIDE1,2:R3-10:R3|PEPTIDE1,PEPTIDE1,1:R1-13:R2$$$V2.0; SMILES CCCC[C@@H]1NC(=O)[C@H]([C@@H](C)O)NC(=O)[C@@H]2CSSC[C@H](NC(=O)[C@H]([C@@H](C)CC)NC(=O)[C@@H]3CCCN3C(=O)[C@@H]3CCCN3C(=O)[C@H](CC(=O)O)NC(=O)[C@H](CO)NC1=O)C(=O)N[C@@H](CCCNC(=N)N)C(=O)N1CCC[C@@H]1C(=O)N1CCC[C@H]1C(=O)N[C@@H]([C@@H](C)CC)C(=O)N2) [Example 59]	98.8	–	0	> 100000	84	55	3.8	5.7	–	–
XCTKSDPPYCY (HELM PEPTIDE1{[O=C([C@@H](N[*:1])C1CCCCC1)[*:2]].C.T.K.S.D.P.P.Y.C.Y.[dP].P}$PEPTIDE1,PEPTIDE1,2:R3-10:R3|PEPTIDE1,PEPTIDE1,1:R1-13:R2$$$V2.0; SMILES C[C@@H](O)[C@@H]1NC(=O)[C@@H]2CSSC[C@H](NC(=O)[C@H](Cc3ccc(O)cc3)NC(=O)[C@@H]3CCCN3C(=O)[C@@H]3CCCN3C(=O)[C@H](CC(=O)O)NC(=O)[C@H](CO)NC(=O)[C@H](CCCCN)NC1=O)C(=O)N[C@@H](Cc1ccc(O)cc1)C(=O)N1CCC[C@@H]1C(=O)N1CCC[C@H]1C(=O)N[C@@H](C1CCCCC1)C(=O)N2) [Example 65]	–	–	–	–	–	47	57	1	–	–
XCTASXPPQCY (HELM PEPTIDE1{[Nle].C.T.A.S.[CCCCCCCC[C@H](N[*:1])C(=O)[*:2]].P.P.Q.C.Y.[dP].P}$PEPTIDE1,PEPTIDE1,2:R3-10:R3|PEPTIDE1,PEPTIDE1,1:R1-13:R2$$$V2.0; SMILES CCCCCCCC[C@@H]1NC(=O)[C@H](CO)NC(=O)[C@H](C)NC(=O)[C@H]([C@@H](C)O)NC(=O)[C@@H]2CSSC[C@H](NC(=O)[C@H](CCC(N)=O)NC(=O)[C@@H]3CCCN3C(=O)[C@@H]3CCCN3C1=O)C(=O)N[C@@H](Cc1ccc(O)cc1)C(=O)N1CCC[C@@H]1C(=O)N1CCC[C@H]1C(=O)N[C@@H](CCCC)C(=O)N2) [Example 81]	–	13.1	–	28	–	–	–	–	61.3	8.7

From patent publication US20140213531A1 (POLYPHOR, published 2014)
